Columns and labels:
[1] = target: T1, PD-1 (soluble, biotinylated, on sensors or coated on plates) (human, UniProt Q15116 25-167, biotinylated (avi tag, Avidity's biotinylation kit) in the Octet assays); assay: ELISA; variable antigen coating
[2] = target: T1, PD-1 (soluble, biotinylated, on sensors …); assay: ELISA; constant antigen coating

T1 sequence (Q15116 25-167): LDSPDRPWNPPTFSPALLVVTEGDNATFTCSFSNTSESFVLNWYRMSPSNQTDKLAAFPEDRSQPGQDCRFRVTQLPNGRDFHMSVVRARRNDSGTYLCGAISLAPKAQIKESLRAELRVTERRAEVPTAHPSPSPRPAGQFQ

EC50 [1]: 0.514 µg/mL
EC50 [2]: 0.0407 µg/mL
B1: P4-B3 IgG1 wild type monomer (antibody, V domains shown)
VH: QVQLVQSGGGLVQPGRSLRLSCAASGFTFDDYAMHWVRQAPGKGLEWVSGISWNSGSIGYADSVKGRFTVSRDNAKNSLYLQMNSLRAEDTAVYYCASDYGDKYYYYGMDVWGKGTTVTVSS
VL: QPGLTQPPSASGTPGQRVTISCSGSSSNIGSNTVNWYQQFPGKAPKLLIFNDNQRPSGVPDRFSASKSGTSASLAISGLQSEDEADYYCAAWDGGLNGRGVFGGGTKLTVLG
